Measured values reported in patent US20190119378A1.

Assays:
[1] = biological target: sRAGE antigen (biotin-labeled); test: ELISA with biotinylated sRAGE
[2] = biological target: sRAGE antigen (biotin-labeled); test: ELISA: antibody coated on plate, serial dilution of biotinylated sRAGE, HRP-streptavidin detection, Prism non-linear fit
[3] = biological target: sRAGE antigen (biotin-labeled); test: as above; remark: listed apart in the source

Kd [1] [nM] | Kd [2] [nM] | Kd [3] [nM] | Binder
62.6 | 58 | 88.4 | original murine anti-RAGE monoclonal antibody (IgG2a isotype with a Kappa light chain) (antibody, V domains shown) VH: DVQLQESGPGLVKPSQSLSLNCSVTGSSITSGYYWNWIRQFPGNKLEWMGDISYDGSNNYNPSLKNRISITRDTSKNQVFMKLNSVTTEDTAIYKCVREDRSGYPPFANWGQGTLVTVSA VL: DVQMTQTTSSLSASLGDRVTINCRASQDISNYLNWYQQKPDGTVKLLIYYTSRLHSGVPSRFSGSGSGTDYSLTISNLEQEDIATYFCQQGNTLPWTFGGGTKLEIK
104 | 40 | 38.7 | mouse-human chimera anti-RAGE antibody (antibody, human IgG1, kappa, V domains shown) VH: DVQLQESGPGLVKPSQSLSLNCSVTGSSITSGYYWNWIRQFPGNKLEWMGDISYDGSNNYNPSLKNRISITRDTSKNQVFMKLNSVTTEDTAIYKCVREDRSGYPPFANWGQGTLVTVSS VL: DIQMTQTTSSLSASLGDRVTINCRASQDISNYLNWYQQKPDGTVKLLIYYTSRLHSGVPSRFSGSGSGTDYSLTISNLEQEDIATYFCQQGNTLPWTFGQGTKVEIKR
133 |  | 42.1 | humanized anti-RAGE antibody, full-length IgG1 (antibody, V domains shown) VH: QVQLQESGPGLVKPSQTLSLTCAVYGGSITSGYYWNWIRQPPGKGLEWIGDISYDGSNNYNPSLKSRVTISRDTSKNQFSLKLSSVTAADTAVYYCVREDRSGYPPFANWGQGTLVTVSS VL: DIQMTQSPSSLSASVGDRVTITCQASQDISNYLNWYQQKPGKAPKLLIYYTSRLHSGVPSRFSGSGSGTDFTFTISSLQPEDIATYYCQQGNTLPWTFGQGTKV
